This note sets out measurements from US20230272055A1 (Incyte, published 2023).

Assay [1] concerns the target T1, Recombinant MBP-mutCALR Type 1 fusion protein (human).
T1 construct: custom made at Cepter; also called recombinant mutCALR protein
Briefly: SPR, IgG captured, 1:1 fit, Exp. 1. The method, then: Experiment 1: Recombinant MBP-mutCALR Type 1 fusion protein was custom made at Cepter (cepterbiopartners.com). Data for the interaction of antibodies with recombinant MBP-mutCALR Type 1 fusion protein were collected at 25° C. on a Biacore 8K instrument (Cytiva, Marlborough, Mass.), and all reagents were obtained from Cytiva unless otherwise specified. The experiments were conducted using Tris-buffered saline (pH 7.2), 0.005% Surfactant P20, 1 mM CaCl₂) as running buffer. To prepare the capture surfaces, anti-human IgG (Fc) antibodies (Product #29234600) was amine-coupled onto a CM4 chip (Product #BR100534) under standard conditions using an Amine Coupling Kit (Product #BR100050). […] The kinetics parameters were obtained by applying 1:1 binding model to fit the data from multiple-cycle injection experiments using Biacore Insight Evaluation software.
(In general: In SPR one partner is held on a chip, and binding of the other changes the refractive index at the surface.)

Assay [2] addresses T2, human mutCALR on BaF3 cells stably expressing human MPL and human mutCALR (MPL-mutCALR cells) (human).
T2 construct: also called mutant calreticulin
T2 chain: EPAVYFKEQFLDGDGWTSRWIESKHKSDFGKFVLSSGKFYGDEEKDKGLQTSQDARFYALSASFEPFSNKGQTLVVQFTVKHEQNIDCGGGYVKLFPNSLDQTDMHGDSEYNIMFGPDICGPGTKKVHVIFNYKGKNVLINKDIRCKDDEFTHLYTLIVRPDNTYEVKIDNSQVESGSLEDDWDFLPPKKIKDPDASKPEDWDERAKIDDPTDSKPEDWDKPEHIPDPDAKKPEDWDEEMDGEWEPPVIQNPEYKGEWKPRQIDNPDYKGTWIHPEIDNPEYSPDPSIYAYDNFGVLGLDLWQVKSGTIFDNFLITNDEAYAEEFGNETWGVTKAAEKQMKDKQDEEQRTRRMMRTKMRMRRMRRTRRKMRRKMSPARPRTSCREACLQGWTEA
Description: flow cytometry, BaF3 MPL-mutCALR cells. On the procedure:
On the day of the assay, cells were washed and resuspended in assay buffer. Approximately 200,000 cells/well were added to 96-well plates and stained with the indicated concentration of antibodies for 30 minutes on ice. Cells were then washed and stained with goat anti-human secondary conjugated to R-phycoerythrin (R-PE) (Jackson Immuno Research Laboratories) for 30 minutes on ice. The cells were then washed and analyzed by flow cytometry.
In general terms: Flow cytometry measures light scatter and fluorescence of single cells or particles in a stream.

B1: anti-mutCALR antibody clone 41 (antibody, human IgG1, lambda, V domains shown)
VH: EVQLVQSGAEVKKPGASVKVSCKVSGYTLTELSMHWVRQAPGKGLEWMGLVDPEDGETIYAQKFQGRVTMTEDTSTDTAYMELSSLRSEDTAVYYCAREEWSGDGDDAFDIWGQGTMVTVSS
VL: QSVLTQPPSVSAAPGQKVTISCSGSSSNIGSYSVSWYQQLPGTAPKLLIYDNNKRPSGIPDRFSGSNSGTSATLGITGLQTGDEADYYCGTWDSSLSAWVFGGGTKLTVLG
notes: human IgG1
The term Kd denotes the constant that tells how readily two partners part at equilibrium. As a reminder, the koff is the rate constant with which the complex falls apart. As a reminder, the kon is the rate constant with which the complex forms. Regarding B1, in assay [1], the Kd was 4.88 nM, the koff came out at 0.00811 s⁻¹ and the kon is 1.66e+06 M⁻¹ s⁻¹.

B2: anti-mutCALR antibody clone 42 (antibody, human IgG1, lambda, V domains shown)
VH: EVQLVQSGAEVKKPGASVKVSCKVSGYTLTELSMHWVRQAPGKGLEWMGLVDPEDGETIYAQKFQGRVTMTEDTSTDTAYMELSSLRSEDTAVYYCAREEWSGDGDDAFDIWGQGTMVTVSS
VL: QSVLTQPPSVSAAPGQKVTISCSGSSSNIGSYSVSWYQQLPGTAPKLLIYDDNKRPSGIPDRFSGSNSGTSATLSITGLQTGDEADYYCGTWDSSLSAWVFGGGTKLTVLG
notes: human IgG1
For B2, in assay [1], the Kd is 6.97 nM, the koff was found to be 0.00452 s⁻¹ and the kon came to 649000 M⁻¹ s⁻¹.

B3: anti-mutCALR antibody clone 1 (antibody, human IgG1, lambda, V domains shown)
VH: EVQLVQSGAEVKKPGASVKVSCKVSGYTLTELSMQWVRQAPGKGLEWMGGFDPDDGETMYAEKFQGRLTVTEDTSTDTVYMELRSLTSEDTALYFCATSPGYDFFDYWGQGTLVTVSS
VL: SYVLTQPPSVSVAPGKTARITCGGNYIGSKSVHWYQQKPGQAPVLVVYDDGDRPSGIPARFSGSNSGNTATLTISRVEAGDEADYYCQVWDSISDHVVFGGGTKLTVLG
notes: human IgG1
For B3, in assay [1], the Kd came out at 14.2 nM, the koff is 0.0196 s⁻¹ and the kon stood at 1.38e+06 M⁻¹ s⁻¹.

B4: anti-mutCALR antibody clone 176 (antibody, human IgG1, lambda, N297A, V domains shown)
VH: EVQLVQSGAEVKKPGASVKVSCKVSGYTLTELSMQWVRQAPGKGLEWMGGFDPDAGETMYAEKFQGRLTVTEDTSTDTVYMELSSLRSEDTAVYFCATSPGYDFFDYWGQGTLVTVSS
VL: SYVLTQPPSVSVAPGQTARITCGGSDIGDEIVHWYQQKPGQAPVLVVYDDSDRPSGIPERFSGSNSGNTATLTISRAQAGDEADYYCQVWDSSSDHLIFGGGTKLTVLG
A word on the EC50: it is the midpoint of the concentration-response curve. With B4, in assay [2], a half-maximal effect (EC50) was put at 3.1 ng/mL and the “MPL-mutCALR AUC” value was 48400.

B5: anti-mutCALR antibody clone 2 (antibody, human IgG1, lambda, V domains shown)
VH: EVQLVQSGAEVKKPGASVKVSCKVSGYTLTELSMQWVRQAPGKGLEWMGGFDPDDGETMYAEKFQGRLTVTEDTSTDTVYMELRSLTSEDTALYFCATSPGYDFFDYWGQGTLVTVSS
VL: SYELTQPPSVSVAPGKTARITCGGDNIGSKSVHWYQQKPGQAPVLVVYDDSDRPSGIPERFSGSNSGNTATLTISRVEAGDEADYYCQVWDSSIDHLIFGGGTKVTVLG
notes: human IgG1
Regarding B5, in assay [1], the Kd was 7.58 nM, the koff came to 0.0123 s⁻¹ and the kon was 1.63e+06 M⁻¹ s⁻¹.

B6: anti-mutCALR antibody clone 4 (antibody, human IgG1, lambda, V domains shown)
VH: EVQLVQSGAEVKKPGASVKVSCKVSGYTLTELSMQWVRQAPGKGLEWMGGFDPDDGETMYAEKFQGRLTVTEDTSTDTVYMELRSLTSEDTALYFCATSPGYDFFDYWGQGTLVTVSS
VL: SYVLTQPPSVSVAPGQTARITCGGNNIGSKSVHWYQQKPGQAPVLVVYDDSDRPSGIPERFSGSNSGNTATLTINRVEAGDEADYYCQVWDSSNDLLIFGGGTKLTVLG
notes: human IgG1
For B6, in assay [1], the Kd came to 4.33 nM, the koff worked out at 0.00704 s⁻¹ and the on-rate (kon) was determined as 1.63e+06 M⁻¹ s⁻¹.

B7: anti-mutCALR antibody clone 10 (antibody, human IgG1, lambda, V domains shown)
VH: EVQLVQSGAEVKKPGASVKVSCKVSGYTLTELSMQWVRQAPGKGLEWMGGFDPDDGETMYAEKFQGRLTVTEDTSTDTVYMELRSLTSEDTALYFCATSPGYDFFDYWGQGTLVTVSS
VL: SYELTQPPSVSVAPGQTARIPCGGNNIGSEGVHWYQQKPGQAPVLVVYDDSDRPSGIPERFSGSNSGNTATLTISRVEAGDEADYYCQVWDSSNDLLIFGGGTKLTVLG
notes: human IgG1
B7: in assay [1], the Kd stood at 1.38 nM, the koff amounted to 0.00292 s⁻¹ and the kon turned out to be 2.11e+06 M⁻¹ s⁻¹.

B8: anti-mutCALR antibody clone 3 (antibody, human IgG1, lambda, V domains shown)
VH: EVQLVQSGAEVKKPGASVKVSCKVSGYTLTELSMQWVRQAPGKGLEWMGGFDPDDGETMYAERFQGRLTVTEDTSTDTVYMELRSLTSEDTALYFCATSPGYDFFDYWGQGTLVTVSS
VL: SYVLTQPPSVSVAPGQTARITCGGNNIGSKSVHWYQQKPGQAPVLVVYDDSDRPSGIPERFSGSNSGNTATLTINRVEAGDEADYYCQVWDSSNDLLIFGGGTKLTVLG
notes: human IgG1
For the molecule B8, in assay [1], the Kd is 3.45 nM, the koff is 0.00716 s⁻¹ and the kon was found to be 2.08e+06 M⁻¹ s⁻¹.

B9: anti-mutCALR antibody clone 16 (antibody, human IgG1, lambda, V domains shown)
VH: EVQLVQSGAEVKKPGASVKVSCKVSGYTLTELSMQWVRQAPGKGLEWMGGFDPDDGETMYAEKFQGRLTVTEDTSTDTVYMELRSLTSEDTALYFCATSPGYDFFDYWGQGTLVTVSS
VL: SYVLTQPPSVSVAPGKTARITCGGNNTGSKSVHWYQQKPGQAPVLVVYDDSDRPSGIPERFSGSNSGNTATLTINRVEAGDEADYYCQVWDSSNDLLIFGGGTKLTVLG
notes: human IgG1
Take B9: in assay [1], the Kd stood at 12.5 nM, the koff amounted to 0.0354 s⁻¹ and the kon turned out to be 2.84e+06 M⁻¹ s⁻¹.

B10: anti-mutCALR antibody clone 12 (antibody, human IgG1, lambda, V domains shown)
VH: EVQLVQSGAEVKKPGASVKVSCKVSGYTLTELSMQWVRQAPGKGLEWMGGFDPDGGETMYAEKFQGRLTVTEDTSTDTVYMELRSLTSEDTALYFCATSPGYDFFDYWGQGTLVTVSS
VL: SYVLTQPPSVSVAPGQTARVSCGGNNIGSKSVNWYRQKPGQAPVLVIYDDSDRPSGIPERFSGSNSGNTATLTINRVEAGDEADYYCQVWDSSNDLLIFGGGTKLTVLG
notes: human IgG1
As for B10, in assay [1], the Kd stood at 4.08 nM, the koff stood at 0.0024 s⁻¹ and the kon was 589000 M⁻¹ s⁻¹.

B11: anti-mutCALR antibody clone 13 (antibody, human IgG1, lambda, V domains shown)
VH: QVQLVQSGAEVKKPGASVKVSCKVSGYTLTELSMQWVRQAPGKGLEWMGGFDPDDGETMYAEKFQGRLTVTEDTSTDTVYMELRSLTSEDTALYFCATSPGYDFFDYWGQGTLVTVSS
VL: not shown
notes: human IgG1
With B11, in assay [1], the Kd was found to be 10.1 nM, the koff amounted to 0.0301 s⁻¹ and the kon was determined as 2.99e+06 M⁻¹ s⁻¹.

B12: anti-mutCALR antibody clone 7 (antibody, human IgG1, lambda, V domains shown)
VH: EVQLVQSGAEVKKPGASVKVSCKVSGYTLTELSMQWVRQAPGKGLEWMGGFDPDDGETMYAEKFQGRLTVTEDTSTDTVYMELRSLTSEDTALYFCATSPGYDFFDYWGQGTLVTVSS
VL: SYVLTQPPSVSVAPGQTASITCVGTNFGSKNVHWYQQRPGQAPVLVVYDDSDRPSGIPERFSGSNSGNTATLTINRVEAGDEADYYCQVWDSSNDLLIFGGGTKLTVLG
notes: human IgG1
Consider B12, for which, in assay [1], the Kd was 3.83 nM, the koff amounted to 0.00609 s⁻¹ and the kon stood at 1.59e+06 M⁻¹ s⁻¹.

B13: anti-mutCALR antibody clone 18 (antibody, human IgG1, lambda, V domains shown)
VH: EVQLVQSGAEVKKPGASVKVSCKVSGYTLTELSMQWVRQAPGKGLEWMGGFDPDDGETMYAEKFQGRLTVTEDTSTDTVYMELRSLTSEDTALYFCATSPGYDFFDYWGQGTLVTVSS
VL: SYVLTQPPSVSVAPGKTARITCGGNNIGSKSVHWYQQKPGQAPVLVVYDDSDRPLGIPERFSGSNSGNTATLTINRVEAGDEADYYCQVWDSSNDLLIFGGGTKLTVLG
notes: human IgG1
In the case of B13, in assay [1], the Kd turned out to be 2.66 nM, the koff was found to be 0.00628 s⁻¹ and the kon was 2.37e+06 M⁻¹ s⁻¹.

B14: anti-mutCALR antibody clone 5 (antibody, human IgG1, lambda, V domains shown)
VH: EVQLVQSGAEVKKPGASVKVSCKVSGYTLTELSMQWVRQAPGKGLEWMGGFDPDDGETMYAEKFQGRLTVTEDTSTDTVYMELRSLTSEDTALYFCATSPGYDFFDYWGQGTLVTVSS
VL: SYVLTQPPSVSVAPGQTASITCVGTNFGSKNVHWYQQRPGQAPVLVVYDDSDRPSGIPERFSGSNSGNTATLTISRVEAGDEADYYCQVWDSSSDHLIFGGGTKLTVLG
notes: human IgG1
As for B14, in assay [1], the Kd is 4.33 nM, the koff worked out at 0.00405 s⁻¹ and the kon amounted to 935000 M⁻¹ s⁻¹.

B15: anti-mutCALR antibody clone 9 (antibody, human IgG1, lambda, V domains shown)
VH: EVQLVQSGAEVKKPGASVKVSCKVSGYTLTELSMQWVRQAPGKGLEWMGGFDPDDGETMYAEKFQGRLTVTEDTSTDTVYMELRSLTSEDTALYFCATSPGYDFFDYWGQGTLVTVSS
VL: SYVLTQPPSVSVAPGQTARIPCGGNNIGSKSVHWYQQKPGQAPVLVVYDDRDRPSGIPERFSGSNSGNTATLTINRVEAGDEADYYCQVWDSSNDLLIFGGGTKLTVLG
notes: human IgG1
Turning to B15, in assay [1], the Kd stood at 2.99 nM, the koff is 0.00904 s⁻¹ and the kon is 3.02e+06 M⁻¹ s⁻¹.

B16: anti-mutCALR antibody clone 8 (antibody, human IgG1, lambda, V domains shown)
VH: QVQLVQSGAEVKKPGSSVKVSCKVSGYTLTELSMQWVRQAPGKGLEWMGGFDPDDGETMYAEKFQGRLTVTEDTSTDTVYMELRSLTSEDTALYFCATSPGYDFFDYWGQGTLVTVSS
VL: SYELTQPPSVSVAPGQTARITCGGNNIGSKSVHWYQQKPGQAPVLVVYDDSDRPSGIPERFSGSNSGRTATLTISRVEAGDEADYHCQVWDSSSDHLVFGGGTKLTVLG
notes: human IgG1
In the case of B16, in assay [1], the Kd came to 4.58 nM, the koff stood at 0.00802 s⁻¹ and the kon was 1.75e+06 M⁻¹ s⁻¹.
